In paper PMC10249358 (2023):

B1: NOP53(192–207) peptide displayed on M13 phage [human] / GST-tagged merlin FERM domain [human] (parent complex)
chain 1: FYDLWASDNPLDRPLV
chain 2: FTVRIVTMDAEMEFNCEMKWKGKDLFDLVCRTLGLRETWFFGLQYTIKDTVAWLKMDKKVLDHDVSKEEPVTFHFLAKFYPENAEEELVQEITQHLFFLQVKKQILDEKIYCPPEASVLLASYAVQAKYGDYDPSVHKRGFLAQEELLPKRVINLYQMTPEMWEERITAWYAEHRGRARDEAEMEYLKIAQDLEMYGVNYFAIRNKKGTELLLGVDALGLHIYDPENRLTPKISFPWNEIRNISYSDKEFTIKPLDKKIDVFKFNSSKLRVNKLILQLCIGNHDLFMRRRK
B2: FAM83G(111–126) peptide displayed on M13 phage [human] / GST-tagged merlin FERM domain [human] (parent complex)
chain 1: AEPLPSLEYWPQKSDR
chain 2: B1 chain 2

Variants of: B1
Experiment: clonal phage ELISA; ratio of A450 on immobilized GST-merlin to A450 on GST, normalized to 100% of WT peptide; no-peptide phage control est. 32%; read off a plot

Row | Variant | percent of parent [% binding]
1 | chain 1 FKDLWASDNPLDRPLV [chain 1 Y2K] | ~16
2 | chain 1 FYDLWASDNPKDRPLV [chain 1 L11K] | ~14
3 | chain 1 FYDLWASDNPLDAPLV [chain 1 R13A] | ~97
4 | chain 1 KYDLWASDNPLDRPLV [chain 1 F1K] | ~29
5 | chain 1 FYDLWASDAPLDRPLV [chain 1 N9A] | ~93
6 | chain 1 FYDLWASANPLDRPLV [chain 1 D8A] | ~110
7 | chain 1 FYDLWASKNPLDRPLV [chain 1 D8K] | ~94
8 | chain 1 FYDLWASDNPLDRPLK [chain 1 V16K] | ~61
9 | chain 1 FYDLKASDNPLDRPLV [chain 1 W5K] | ~31
10 | chain 1 FYDLWKSDNPLDRPLV [chain 1 A6K] | ~59
11 | chain 1 FYKLWASDNPLDRPLV [chain 1 D3K] | ~33
12 | chain 1 FYALWASDNPLDRPLV [chain 1 D3A] | ~29
13 | chain 1 FYDLWASDNKLDRPLV [chain 1 P10K] | ~26
14 | chain 1 FYDLWASDNPLDRPKV [chain 1 L15K] | ~16
15 | chain 1 FYDLWASDNPLARPLV [chain 1 D12A] | ~24
16 | chain 1 FYDLWAADNPLDRPLV [chain 1 S7A] | ~120
17 | chain 1 FYDLWASDNPLDRKLV [chain 1 P14K] | ~50
18 | chain 1 FYDKWASDNPLDRPLV [chain 1 L4K] | ~29

Variants of: B2
Experiment: clonal phage ELISA; ratio of A450 on immobilized GST-merlin to A450 on GST, normalized to 100% of WT peptide; no-peptide phage control est. 29%; read off a plot

Row | Variant | percent of parent [% binding]
19 | chain 1 AEPLPELEYWPQKSDR [chain 1 S6E] | ~88
20 | chain 1 AEPLPSLEYWPQKSAR [chain 1 D15A] | ~110
21 | chain 1 AEPLPSLAYWPQKSDR [chain 1 E8A] | ~17
22 | chain 1 AEPLPSKEYWPQKSDR [chain 1 L7K] | ~84
23 | chain 1 AEPLPSLEYWPQKADR [chain 1 S14A] | ~98
24 | chain 1 AEPLKSLEYWPQKSDR [chain 1 P5K] | ~68
25 | chain 1 AEPLPSLEYWPAKSDR [chain 1 Q12A] | ~76
26 | chain 1 AEPLPSLEYKPQKSDR [chain 1 W10K] | ~23
27 | chain 1 AEPLPSLEYWKQKSDR [chain 1 P11K] | ~19
28 | chain 1 AEPLPSLEYWPQKSDA [chain 1 R16A] | ~99
29 | chain 1 AEPLPSLEKWPQKSDR [chain 1 Y9K] | ~21
30 | chain 1 AEPLPSLEDWPQKSDR [chain 1 Y9D] | ~13
31 | chain 1 AEPLPSLEYWPQDSDR [chain 1 K13D] | ~81
32 | chain 1 AEPLPSLEYWPQASDR [chain 1 K13A] | ~91
33 | chain 1 AEPKPSLEYWPQKSDR [chain 1 L4K] | ~86
